Experimental data: PMC1277818, “Substrate specificity analysis of protein kinase complex Dbf2-Mob1 by peptide library and proteome array screening” (BMC Biochemistry, 2005)

Target: T1, FHHDbf2-H6Mob1TM9 (Saccharomyces cerevisiae, UniProt P22204+P40484)
T1 construct: made in house; host or cells: Hi5 insect cells (baculovirus)
T1 sequence (P22204 1-572): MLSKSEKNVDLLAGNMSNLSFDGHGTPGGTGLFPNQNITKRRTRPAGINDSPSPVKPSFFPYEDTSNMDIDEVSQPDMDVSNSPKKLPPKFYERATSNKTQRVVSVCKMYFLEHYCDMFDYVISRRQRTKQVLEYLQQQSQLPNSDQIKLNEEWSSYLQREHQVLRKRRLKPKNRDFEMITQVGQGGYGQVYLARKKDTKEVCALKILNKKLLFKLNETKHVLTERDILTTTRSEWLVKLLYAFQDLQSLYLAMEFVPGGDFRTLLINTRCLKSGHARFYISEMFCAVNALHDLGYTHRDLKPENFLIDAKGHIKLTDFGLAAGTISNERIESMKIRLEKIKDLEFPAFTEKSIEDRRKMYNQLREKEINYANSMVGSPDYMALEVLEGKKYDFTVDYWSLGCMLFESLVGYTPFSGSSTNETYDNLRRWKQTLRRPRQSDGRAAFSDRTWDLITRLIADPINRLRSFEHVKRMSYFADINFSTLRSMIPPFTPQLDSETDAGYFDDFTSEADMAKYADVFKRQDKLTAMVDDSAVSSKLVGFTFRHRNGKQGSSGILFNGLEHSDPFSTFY
T1 sequence (P40484 1-314 partner): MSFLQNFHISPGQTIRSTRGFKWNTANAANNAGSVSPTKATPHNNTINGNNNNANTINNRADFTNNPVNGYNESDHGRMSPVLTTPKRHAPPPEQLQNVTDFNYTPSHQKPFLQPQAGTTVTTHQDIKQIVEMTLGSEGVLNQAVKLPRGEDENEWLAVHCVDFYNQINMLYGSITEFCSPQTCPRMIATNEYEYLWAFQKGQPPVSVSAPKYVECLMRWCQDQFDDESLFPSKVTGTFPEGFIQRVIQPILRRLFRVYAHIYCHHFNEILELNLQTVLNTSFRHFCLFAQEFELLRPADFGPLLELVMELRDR
Test: Yeast proteome chip assay
Format: biochemical
Conditions: [γ-33P]ATP, chips in duplicate
Method: The relatively low sequence complexity of the Dbf2 phosphorylation motif diminished the power of using genome-wide bioinformatics screens to identify putative substrates. Accordingly, we carried out a proteome array screen to identify putative yeast substrates. […] After taking into account the proteins phosphorylated in the negative controls, 67 proteins were determined to be putative Dbf2-Mob1 substrates (Table 3).
Yeast proteome microarrays were prepared as previously described. Overexpressed GST-tagged yeast proteins were purified from ~4,400 yeast strains and spotted on slides. To determine the optimal amount of kinase to use for probing proteome chips, we performed trial assays as described (J. Ptacek et al., submitted). […] The full proteome array was probed with 4 μl ^FHHDbf2-^H6Mob1^TM9 in 200 μl of DKB supplemented with [γ-^33P]ATP. As a control, ^FHHDbf2(N305A)-^H6Mob1^TM9 was used to probe the proteome array. […] To control for autophosphorylated proteins, the proteome array was probed with 200 μl of DKB supplemented with [γ-^33P]ATP. Proteome chips were assayed in duplicate in each case. Data analysis was performed as described (J. Ptacek et al., submitted). Briefly, signals were analyzed by a computer algorithm designed to normalize background and identify signals as positive if 3 of 4 spots (each protein is spotted twice on each slide and each kinase or control was tested on 2 slides) were 2 standard deviations above background and the fourth spot was 1.5 standard deviations above background.

[1] = Table 3, GST fusion proteins on proteome chip, computer analysis
[2] = Table 4, the 25 proteins with highest signal relative to protein amount

Row | Substance | Slide Signal (after normalization) [1] | Slide Signal (after normalization) [2]
1 | YMR229C: GST fusion yeast protein on proteome chip | 2.6954 | 2.6954
2 | YNL007C: GST fusion yeast protein on proteome chip | 0.2239 | 
3 | YDR171W: GST fusion yeast protein on proteome chip | 0.442 | 
4 | YDL220C: GST fusion yeast protein on proteome chip | 1.0274 | 1.0274
